# Test results: publication PMC11879457 (Nucleic Acids Research, 2025)
# T1: YdaT (Rac prophage) (Escherichia coli K-12 MG1655 (Rac …, UniProt P76064 1-140))
# T1 sequence: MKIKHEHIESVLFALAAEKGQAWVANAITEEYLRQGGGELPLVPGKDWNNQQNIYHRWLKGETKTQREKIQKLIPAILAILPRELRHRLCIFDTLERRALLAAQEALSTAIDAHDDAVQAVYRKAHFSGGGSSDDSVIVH
# T2: YdaTmut (H56A R57A) (Escherichia coli K-12 MG1655 (Rac …, UniProt P76064 1-140, H56A;R57A))
# T2 sequence: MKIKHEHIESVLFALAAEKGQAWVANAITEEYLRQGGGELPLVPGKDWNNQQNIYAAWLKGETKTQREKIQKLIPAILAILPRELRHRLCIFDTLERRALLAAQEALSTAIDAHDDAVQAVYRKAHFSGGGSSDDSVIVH
# Columns and labels:
# SEC = biological target: the molecule itself; assay: SEC
# SDS-PAGE = biological target: the molecule itself; assay: SDS-PAGE
# YdaT (Rac prophage) = biological target: T1, YdaT (Rac prophage); assay: DNase I footprinting
# YdaTmut (H56A R57A) = biological target: T2, YdaTmut (H56A R57A); assay: DNase I footprinting
Binder,stoichiometry N (SEC),stoichiometry N (SDS-PAGE),binding result (YdaT (Rac prophage)),binding result (YdaTmut (H56A R57A))
"N-terminally 6x His-tagged YdaT, wild type (Rac prophage transcription factor) (natural protein, E. coli K-12 (Rac prophage), UniProt P76064 1-140, looked up) MKIKHEHIESVLFALAAEKGQAWVANAITEEYLRQGGGELPLVPGKDWNNQQNIYHRWLKGETKTQREKIQKLIPAILAILPRELRHRLCIFDTLERRALLAAQEALSTAIDAHDDAVQAVYRKAHFSGGGSSDDSVIVH",4,2,–,–
IGR footprint substrate (165 bp) (dsDNA) DNA 1: GCGCATTACATTAGGCAATCCCTACCCTTACTGCATTAGGCACAGCCTATTGACAATTGCGTTAGGCGTCGCCTAATATTTCTGTGTGTTTTTGGAGTTCATTCGATGAAAAAAGAGAACTATTCATTCAAGCAAGCTTGTGCTGTTGTCGGTGGGCAATCAGCA DNA 2: TGCTGATTGCCCACCGACAACAGCACAAGCTTGCTTGAATGAATAGTTCTCTTTTTTCATCGAATGAACTCCAAAAACACACAGAAATATTAGGCGACGCCTAACGCAATTGTCAATAGGCTGTGCCTAATGCAGTAAGGGTAGGGATTGCCTAATGTAATGCGC,–,–,binds,no binding
